22 molecules from patent US9266964 can be followed below.

Sequences and labels used below:
B1: M202-A10 (Fab, V domains shown)
VH: EVQLLESGGGLVQPGGSLRLSCAASGFTFSHYIMMWVRQAPGKGLEWVSGIYSSGGITVYADSVKGRFTISRDNSKNTLYLQMNSLRAEDTAVYYCAFRRTGIPRRDSFDIWGQGTMVTVSS
VL: DIQMTQSPSTLSASVGDRVTITCRASQSISSWLAWYQQKPGKAPNLLIYKASTLESGVPSRFSGSGSGTEFTLTISSLQPDDFATYYCQQYNTYWTFGQGTKVEIK
B2: M201-F11 (Fab, V domains shown)
VH: EVQLLESGGGLVQPGGSLRLSCAASGFTFSHYIMMWVRQAPGKGLEWVSGIYSSGGITVYADSVKGRFTISRDNSKNTLYLQMNSLRAEDTAVYYCAYRRSGIPRRDAFDIWGQGTMVTVSS
VL: DIQMTQSPSTLSASVGDRVTITCRASQSISSWLAWYQQKPGKAPNLLIYKASTLESGVPSRFSGSGSGTEFTLTISSLQPDDFATYYCQQYNTYWTFGQGTKVEIK
B3: M198-A01 (Fab, V domains shown)
VH: EVQLLESGGGLVQPGGSLRLSCAASGFTFSPYTMIWVRQAPGKLGEWVSSISSSGGMTPYADSVKGRFTISRDNSKNTLYLQMNSLRAEDTAVYYCAYRRTGIPRRDAFDIWGQGTMVTVSS
VL: DIQMTQSPSTLSASVGDRVTITCRASQSISSWLAWYQQKPGKAPNLLIYKASTLESGVPSRFSGSGSGTEFTLTISSLQPDDFATYYCQQYNTYWTFGQGTKVEIK
B4: M197-G11 (Fab, V domains shown)
VH: EVQLLESGGGLVQPGGSLRLSCAASGFTFSTYAMVWVRQAPGKGLEWVSSIYPSGGITTYADSVKGRFTISRDNSKNTLYLQMNSLRAEDTAVYYCAYRRTGIPRRDAFDIWGQGTMVTVSS
VL: DIQMTQSPSTLSASVGDRVTITCRASQSISSWLAWYQQKPGKAPNLLIYKASTLESGVPSRFSGSGSGTEFTLTISSLQPDDFATYYCQQYNTYWTFGQGTKVEIK
B5: M9-F09 (Fab, V domains shown)
VH: EVQLLESGGGLVQPGGSLRLSCAASGFTFSSYPMGWVRQAPGKGLEWVSRISSSGGMTIYADSVKGRFTISRDNSKNTLYLQMNSLRAEDTAVYYCARDDWNVGMDVWGQGTTVTVSS
VL: DIQMTQSPSSLSASVGDRVTITCRASQSISSYLNWYQQKPGKAPKLLIYAASSLQSGVPSKFSGSGSGTDYTLTISSLQPEDFATYYCQQTYTTPWTFGQGTKVEIK
notes: Fab fragment (E. coli TG1); printed HC runs into the start of CH1
B6: M9-H02 (Fab, V domains shown)
VH: EVQLLESGGGLVQPGGSLRLSCAASGFTFSAYMMIWVRQAPGKGLEWVSVIYPSGGVTMYADSVKGRFTISRDNSKNTLYLQMNSLRAEDTAVYYCARGTVGASDAFDIWGQGTMVTVSS
VL: DIQMTQSPSSLSASVGDRVIITCRASRSIATYLNWYQQKPGKAPNLLIFGASTLQSGVPSRFSGSGSGTDFTLTISDLQPEDFATYYCQQSFSDPYTFGQGTNLEMK
notes: as for B5
B7: M9-C10 (Fab, V domains shown)
VH: EVQLLESGGGLVQPGGSLRLSCAASGFTFSLYPMQWVRQAPGKGLEWVSSIGSSGGMTFYADSVKGRFTISRDNSKNTLYLQMNSLRAEDTAVYYCTREVGAAGFAFDIWGQGTMVTVSS
VL: DIQMTQSPSSLSASVGDRVTITCRASQGISSYLNWYQQKPGNAPNLLIYGASSLQSGVPSRFSGSGSGTDFTLTISSLQPEDFATYYCQESYSTLFTFGPGTTVEIK
notes: as for B5
B8: M9-E04 (Fab, V domains shown)
VH: EVQLLESGGGLVQPGGSLRLSCAASGFTFSEYDMMWVRQAPGKGLEWVSSIGSSGGMTYYADSVKGRFTISRDNSKNTLYLQMNSLRAEDTAVYYCARDQVAAAAIDYWGQGTLVTVSS
VL: DIQMIQSPSSLSASVGDRVTITCRASQSISGYLNWYQQRSGKAPKLLIFAASNLQTGVPSRFSGSGSGTDFTLTINNLQPEDFATYYCQQSHTPPKTFGPGTKVDIK
notes: as for B5
B9: M9-D08 (Fab, V domains shown)
VH: EVQLLESGGGLVQPGGSLRLSCAASGFTFSWYKMMWVRQAPGKGLEWVSSIYPSGGWTNYADSVKGRFTISRDNSKNTLYLQMNSLRAEDTAVYYCTRGSPWGDDAFDIWGQGTMVTVSS
VL: DIQMTQSPSSLSASVGDRVTLTCRASRTISFYLNWYQQKAGKAPELLIYGGSSLHSGVPSRFSGSGSGTDFSLTISNLQPEDIAVYYCQQSFSSPWTFGQGTKVEIK
notes: as for B5
B10: M9-A08 (Fab, V domains shown)
VH: EVQLLESGGGLVQPGGSLRLSCAASGFTFSAYEMWWVRQAPGKGLEWVSYIGSSGGSTSYADSVKGRFTISRDNSKNTLYLQMNSLRAEDTAVYYCTGGNSSSFDAFDIWGQGTMVTVSS
VL: DIQMTQSPSSLSASVGDRVTVTCRASQRISTYLNWYQQKPGKAPKLLISGASSLQSGVPSRFSGSGSGTDFTLTISSLQPDDFATYYCQQSYNTPRTFGQGTKVEIR
notes: as for B5
B11: M9-H04 (Fab, V domains shown)
VH: EVQLLESGGGLVQPGGSLRLSCAASGFTFSAYTMWWVRQAPGKGLEWVSSIWPSGGSTFYADSVKGRFTISRDNSKNTLYLQMNSLRAEDTAVYYCARTYDSSAGEVDYWGQGTLVTVSS
VL: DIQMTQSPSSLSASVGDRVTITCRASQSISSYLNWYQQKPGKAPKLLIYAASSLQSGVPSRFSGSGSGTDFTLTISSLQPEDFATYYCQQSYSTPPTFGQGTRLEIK
notes: as for B5
B12: M10-A12 (Fab, V domains shown)
VH: EVQLLESGGGLVQPGGSLRLSCAASGFTFSLYLMHWVRQAPGKGLEWVSSIYSSGGFTTYADSVKGRFTISRDNSKNTLYLQMNSLRAEDTAVYYCARDTDYGMDVWGQGTTVTVSS
VL: DIQMTQSPLSLSAFVGDRVTITCRASRDISVYLNWYQLKSGKAPKLLIYGASSLQSGVPSRFSGSGSGTDFTLTITSLQPEDFATYYCQQSYSIPFTFGGGTKVETK
notes: as for B5
B13: M10-D11 (Fab, V domains shown)
VH: EVQLLESGGGLVQPGGSLRLSCAASGFTFSAYPMNWVRQAPGKGLEWVSRISSSGGNTSYADSVKGRFTISRDNSKNTLYLQMNSLRAEDTAVYYCALGYLGYWGQGTLVTVSS
VL: not shown
notes: as for B5
B14: M9-G08 (Fab, V domains shown)
VH: EVQLLESGGGLVQPGGSLRLSCAASGFTFSYYTMLWVRQAPGKGLEWVSSIYPSGGFTMYADSVKGRFTISRDNSKNTLYLQMNSLRAEDTAVYYCARVDTAMAMIDYWGQGTLVTVSS
VL: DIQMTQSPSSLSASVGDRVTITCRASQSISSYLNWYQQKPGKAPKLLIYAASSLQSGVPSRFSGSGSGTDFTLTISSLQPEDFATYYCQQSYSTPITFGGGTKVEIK
notes: as for B5
B15: M10-B09 (Fab, V domains shown)
VH: EVQLLESGGGLVQPGGSLRLSCAASGFTFSWYEMSWVRQAPGKGLEWVSRIWPSGGVTMYADSVKGRFTISRDNSKNTLYLQMNSLRAEDTAVYYCTRTSITTVGMDVWGQGTTVTVSS
VL: DIQMTQSPSSLSASVGDGVTITCRASQSISTYLNWYQQRPGKAPKLLIYGASSLQSGVPSRFSGSGSGTDFTLTISSLQREDFATYYCQQSFSTPWTFGQGTRVEIK
notes: Fab fragment (E. coli TG1); printed HC runs into the start of CH1; The HC is printed with an amber codon 'q' (LqMNSL), written here as Q
B16: M9-H03 (Fab, V domains shown)
VH: EVQLLESGGGLVQPGGSLRLSCAASGFTFSWYSMGWVRQAPGKGLEWVSYIVPSGGYTMYADSVKGRFTISRDNSKNTLYLQMNSLRAEDTAVYYCARDPGVSYYYYGMDVWGQGTTVTVSS
VL: QYELTQAPSVSVAPGQTASITCSGDKLGNRYTSWYQQKPGQSPVLVIFQDNKRPSGIPERFSGSNSGNTATLTISGTQAMDEADYYCQALDSNTYVFGTGTKVTVL
notes: as for B5
B17: M10-A03 (Fab, V domains shown)
VH: EVQLLESGGGLVQPGGSLRLSCAASGFTFSPYPMQWVRQAPGKGLEWVSSISSSGGMTEYADSVKGRFTISRDNSKNTLYLQMNSLRAEDTAVYYCARDDYGGKGGAFDIWGQGTMVTVSS
VL: DIQMTQSPSSLSASVGDRVTITCRASQRISFYLNWFQQKPGKAPNLLIYGASSLQSGVPSRFSGSGSGTDFTLTISSLQPKDFGTYYCQQTFSTPNTFGQGTKLEIK
notes: as for B5
B18: M9-F08 (Fab, V domains shown)
VH: EVQLLESGGGLVQPGGSLRLSCAASGFTFSPYAMTWVRQAPGKGLEWVSVIYPSGGFTDYADSVKGRFTISRDNSKNTLYLQMNSLRAEDTAMYYCARASGSYLDAFDIWGQGTMVTVSS
VL: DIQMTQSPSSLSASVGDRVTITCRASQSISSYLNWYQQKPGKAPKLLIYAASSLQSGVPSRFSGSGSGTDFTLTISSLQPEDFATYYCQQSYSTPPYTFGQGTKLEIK
notes: Fab fragment (E. coli TG1); printed HC runs into the start of CH1; The LC is printed with an amber codon 'q' (MTqSPS), written here as Q
B19: M10-E06 (Fab, V domains shown)
VH: EVQLLESGGGLVQPGGSLRLSCAASGFTFSLYRMFWVRQAPGKGLEWVSSIWSSGGPTMYADSVKGRFTISRDNSKNTLYLQMNSLRAEDTAVYYCAREYPSTYYFDYWGQGTLVTVSS
VL: DIQMTQSPSSLSASVGDRVTITCRASQSISTYLNWYQQKPGKAPKLLIYGASSLQSGVPSRFSGSGSGTDFTLTISSLQPEDFTIYYCQQSYSDPYTFGQGTKLDIK
notes: as for B5
B20: M10-C11 (Fab, V domains shown)
VH: EVQLLESGGGLVQPGGSLRLSCAASGFTFSMYPMMWVRQAPGKGLEWVSYISPSGGMTDYADSVKGRFTISRDNSKNTLYLQMNSLRAEDMAVYYCARVAGSSDAFDIWGQGTMVTVSS
VL: DIQMTQSPSSLSASVGDRVTITCRASQSISIYLNWYQQKPEKAPKLLIFAASTLQSGVPSRFSGSGSGTDFTLTISNLQPEDFATYYCQQSHSIPPTFGLGTKVEVK
notes: as for B5
B21: M9-C08 (Fab, V domains shown)
VH: EVQLLESGGGLVQPGGSLRLSCAASGFTFSHYGMVWVRQAPGKGLEWVSYIVPSGGLTYYADSVKGRFTISRDNSKNTLYLQMNSLRAEDTAVYYCARVDYTGDGLGYWGQGTLVTVSS
VL: DIQMTQSPSSLSASVGDRVTITCRASQSISIYVNWYQQKPGKAPNLLIFAASSLQRGVPSRFSGSGSGADFTLTISSLQPEDFATYYCQQSFSTPLTFGGGTKVEIK
notes: as for B5
B22: M9-F10 (Fab, V domains shown)
VH: EVQLLESGGGLVQPGGSLRLSCAASGFTFSDYDMEWVRQAPGKGLEWVSSISPSGGSTIYADSVKGRFTISRDNSKNTLYLQMNSLRAEDTAVYYCARQGLLTAFDIWGQGTMVTVSS
VL: DIQMTQSPSSLSASVGDRVTITCRASQSINTYLNWYQQKPGKAPKVLIHAASTLESGVPSRFSGSGSGTDFTLTISSLQPEDFATYYCQQSYSTPYTFGQGTKLEVR
notes: as for B5

The first assay has as its target human plasma kallikrein (human, UniProt P03952 20-390; P03952 391-638). Put plainly: cell-based or functional assay.
Target sequence in this assay (P03952 20-390, chain 1 of 2): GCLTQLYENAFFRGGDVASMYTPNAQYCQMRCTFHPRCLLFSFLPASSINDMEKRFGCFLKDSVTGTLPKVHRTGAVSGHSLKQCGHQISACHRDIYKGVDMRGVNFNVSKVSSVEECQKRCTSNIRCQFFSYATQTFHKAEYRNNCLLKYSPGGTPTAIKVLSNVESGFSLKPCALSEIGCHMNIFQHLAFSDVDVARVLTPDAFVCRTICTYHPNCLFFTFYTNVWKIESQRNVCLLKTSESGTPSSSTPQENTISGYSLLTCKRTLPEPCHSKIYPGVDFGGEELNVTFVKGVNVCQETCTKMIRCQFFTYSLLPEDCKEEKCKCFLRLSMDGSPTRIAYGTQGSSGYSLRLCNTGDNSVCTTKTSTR
Target sequence in this assay (P03952 391-638, chain 2 of 2): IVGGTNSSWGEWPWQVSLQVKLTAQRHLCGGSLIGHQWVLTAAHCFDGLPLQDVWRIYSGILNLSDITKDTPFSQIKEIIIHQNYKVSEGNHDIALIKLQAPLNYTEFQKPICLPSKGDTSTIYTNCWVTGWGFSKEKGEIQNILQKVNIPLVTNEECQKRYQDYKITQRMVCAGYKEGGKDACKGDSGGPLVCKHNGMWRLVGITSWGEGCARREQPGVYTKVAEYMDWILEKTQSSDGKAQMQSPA
Take B1: the “% inhibition at 10 nM” value came out at 36.3%.

As to B2, the “% inhibition at 10 nM” value is 15.7%.

B3: the “% inhibition at 10 nM” value is 13.8%.

For B4, the “% inhibition at 10 nM” value turned out to be 19.2%.

The target in a further assay is T1, human plasma kallikrein (human, UniProt P03952 20-390; P03952 391-638).
T1 construct: two disulfide-linked chains; also called pKal; human pKal
Put plainly: ELISA; signal on coated biotinylated human plasma kallikrein divided by signal on streptavidin; Fab. An excerpt:
Abbreviations used: "T/B" is the ELISA signal obtained using of the target (biotinylated plasma kallikrein) divided by the ELISA signal of the "background" (streptavidin); both of which were coated on microtiter plates. "nd" is not determined. The symbol "q" refers to the amber suppressible stop codon (TAG), which is translated as glutamine (Q) in strains of E. coli such as the TG1 cells that were used to express the Fab fragments.
T1 sequence (P03952 20-390, chain 1 of 2): as the sequence (P03952 20-390, chain 1 of 2) above
T1 sequence (P03952 391-638, chain 2 of 2): as the sequence (P03952 391-638, chain 2 of 2) above
For the molecule B5, the “Human pKal ELISA (T/B)” value was 7 T/B (target signal / background signal).

With B6, the “Human pKal ELISA (T/B)” value is 3.5 T/B (target signal / background signal).

B7: the “Human pKal ELISA (T/B)” value is 7.8 T/B (target signal / background signal).

For B8, the “Human pKal ELISA (T/B)” value is 18.8 T/B (target signal / background signal).

With B9, the “Human pKal ELISA (T/B)” value is 35.9 T/B (target signal / background signal).

In the case of B10, the “Human pKal ELISA (T/B)” value is 5.5 T/B (target signal / background signal).

For B11, the “Human pKal ELISA (T/B)” value was 16.1 T/B (target signal / background signal).

With B12, the “Human pKal ELISA (T/B)” value was 20.8 T/B (target signal / background signal).

As to B13, the “Human pKal ELISA (T/B)” value is 6.4 T/B (target signal / background signal).

On to B14, for which the “Human pKal ELISA (T/B)” value is 4.8 T/B (target signal / background signal).

For B15, the “Human pKal ELISA (T/B)” value was 14.1 T/B (target signal / background signal).

Turning to B16, the “Human pKal ELISA (T/B)” value is 4.4 T/B (target signal / background signal).

In the case of B17, the “Human pKal ELISA (T/B)” value was 33.7 T/B (target signal / background signal).

Regarding B18, the “Human pKal ELISA (T/B)” value is 10.9 T/B (target signal / background signal).

Turning to B19, the “Human pKal ELISA (T/B)” value is 32.8 T/B (target signal / background signal).

Regarding B20, the “Human pKal ELISA (T/B)” value was 5.3 T/B (target signal / background signal).

With B21, the “Human pKal ELISA (T/B)” value was 10.9 T/B (target signal / background signal).

With B22, the “Human pKal ELISA (T/B)” value is 8.4 T/B (target signal / background signal).

For orientation: % inhibition means the percentage by which the read-out fell short of the control. Read a high % inhibition as a response far below the control.
